In the nanobody polyreactivity screen of Harvey et al. (2022):

Test: yeast display, Sf9 membrane polyspecificity reagent, FACS + sequencing; frameworks hold sequencing errors
Summary of the method: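 A nanobody's polyreactivity label depends on the gate it was sorted from. Yeast display cells were stained with 10% biotinylated, detergent-solubilized Sf9 membrane reagent for 1 hour at 4 °C, enriched on streptavidin microbeads and sorted by FACS. The low and high (top ~1%) gates were set on anti-HA fluorescence for expression and streptavidin fluorescence for reagent binding.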

Sequence	polyreactivity (PSR sort gate)
QVQLVESGGGLVQAGGSLRLSCAASGRIFAYNAMGWYRQAPGKERELVATITSSGDGTSYADSVKGRFTISRDNAKNTVYLQMNSLKPEDTAVYYCNKVTRVRRDPYDAVAYRGGYWGQGTQVTVSS	high polyreactivity
QVQLVESGGGIVEAGGSLRLSCAASGRIFNQYAMGWYRQAPGKEREFVAAIRWSGGRTYYADSVKGRFTISRDNAKNTVYLQMNRLKPEDTAVYYCAADLYGNNYWDGTTGYDYWGQGTQVTVSS	low polyreactivity
QVQHVESGGGLVQAGGSLRLSCAAYGSTFGVNAMGWYRQAPGKEREFVAAITWSSTSTYYADSVKGRFTISRDNAKNTVYLQMNSLKPEDTAVYYCAARQRIYRHYAYGYWGQGTQLTVSS	high polyreactivity
QVQLVESGGGLVQAGGSLRLSCAASGRIFHWYAMGWYRQAPGKERELVAAIRWTGGSTYYADSVKGRFTISRDNAKNTVYLQMNSLKREDTAVYYCAAKGYTGIFYEMDYWGQGTQVTVSS	low polyreactivity
QVQLVESGGGLVQPGGSLRLSCAAYGLTFYGYTMGWYRQAPGKERELVASITRSGGSTYADSVKGRFTISRDNAKNTVYLQMNSLKPEDTAVFYCAAVYRARGYYYWGQGTQVTVSS	high polyreactivity
QVQLVESGGGLVQAGGSLRLSCAASGRIFKSYAMGWYRQAPGKERELVAIIRSSGTTYYADSVKGRFTISRDNAKNTVYLQMNSLKPEDTAVYYCNADGYPLGDKYDYWGQGTQVTVSS	high polyreactivity
QVQLVESGGGLVQAGGSLRLSCAASGRTFVSNAMGWYRQAPGKERELVAAISSSGGSTYYADSVKGRFTISRDNAKNTVYLQMNSLKPEDTAVYYCATYPWYSKYRYDHWGQGTQVTVSS	high polyreactivity
QVQLEESGGGLVQAGGSLRLSCAASGSTYACYYMGWYIQAPGTEREFVAAIDYGGGSTYADSVQGRFTISRDNAKITVYLQMNSLKPEDTAVYYCYADNWVYLYVYWGQGTQVTVSS	low polyreactivity
HVHQQGSGGGLAQARDSLRLSCAASGTNFSEYNNGLVSQGAGQRTRTCCRYWCWGNTYYADSAKGRLTSSRDNAKYNVDLQKNSLKPEDTAVYYCAFILPYPSRHIDRGQGTQVTVSS	high polyreactivity
QVQLVESGGGLVQAGGSLRLSCAASGSTFERYAMGWYRQAPGKERELVAAITWGGGSTNYADSVKGRFTISRDNAKNTVYLQMNSLKPEDTAVYYCAREWRTRIYYYWGQGTQVTVSS	low polyreactivity
QVQLVESGGGLVQAGGRLRLSCAASGSIFRPNPMGLYRQAPGKDRELVAAITWSGDSTYYADSVKGRFTISRDNAKNTVYLQMNSLKPEDTAVYYCAADFTYQGYSANDYWGQGTQVTVSS	low polyreactivity
QVQLVESGGGLVQAGGSLRLSCAASGFTFYRNTMGWYRQAPGKERELVAAITQRGGSTYYADSVKGRFTISRDNAKNTVYLQMNSLKPEDTAVYYCNRDVKVLYASSHSPYGYDHWGQGTQVTVSS	low polyreactivity
QVQLVESGGGLVQAGGSLRLSCAASGFTFRRYAMGWYRQAPGKERELVAAITYSGTRTYYADSVKGRFTISRDIAKNTVYLEMNSLSPEDTAVYYCNAGVGYFVGTYYGFLPYDYWGQGTQVTVSS	high polyreactivity
QVQLLESGGGLLQAGGSLRLSCAASGRIFKFNAMGWYRQAPGKERELVAAISKRGGSTYYADSVKGRFTISRDNAKNTVYLQMNSLNPEDTAVYYCAAPIYNGYASWQVYYWGQGTQVTVSS	high polyreactivity
QDQLVESGGGLVQAGASLRLSCAASGNIFANAMGWYRQAPGKQRELVAAISRSGGRTYYADSVKGRFTISRDNANNTVYLQMKSLIPEDTAVSYCNKAAYNYYLYGYWGQGTQVTVSS	high polyreactivity
QVQLVESGGGLVQAGGSLRLSCAASGLTFQYKTMGRYRQAPGKEREFVAAITISGGTTYYADSVKGRFTISRDNAKTTVYLQMNSLKPEDTAVHYCAADFNSTERGTNMDYWGQGTQVTVSS	low polyreactivity
QVHLVESGGGIDQAGGSLRLSCAASGSIFRNYAMAWKRQAPGKERELVAFITRGGSTYYADSVKVRFTISRDNAKNTVYFQMNSLKPEHTAVYYCAADFWPAGLDLGYWGQGTQVTLSS	low polyreactivity
QVQLVESGGGLVQAGGSLRLSCAASGSIFWVNAMGWYRQAPGKERELVAAITWSAGSTYYADSVKGRFTISRDNANNTVYLQMNSLKPEDTAVYYFAAGVAWYYWTLDYWGQGTQVTVSS	low polyreactivity
QVQLVESGGGLVQAGGSLRLSCAASGITFSYNAMGWYRQAAGKERELVAAITWSGDSTYYADSVKGRFTISRDNAKNTVYLQMNSLKPEDTAVYYCNAVPSQHDEFDYWGQGTQVTVSS	low polyreactivity
QVQLVESGGGLVQAGGSLRLSCAASGYTFGKYVMGWYRQAPGKERELVAAISISGSGTYYADSVKGRFTISRDNAKNTVYLQMNSLKPEDTAVYYCAARGYGFPELDYWGQGTQVTLSS	high polyreactivity
QVQLVESGGGLVQAGGSLRLSCAASGLTFPLYAMGWYRPAPGKEREFVAAITVSGVSTSYADSVKGRFTISRDNAKNTVYLQMNSLKPEDTAVYYCAADYYIWTYWDVYYWGQGTQVTVSS	high polyreactivity
QVQLVESGGGLVQAGGSLRLSCAASGFTFPWNVMGWYRQAPGKERELVAAITYDGGGTYADSVKGRFTISRDNAKNTVYLQMNSLKPEDTAVYYSNADLIYGEEYDYWGQGTQVTVSS	low polyreactivity

Sequence	polyreactivity (PSR sort gate)
QVQLVESGGGLVQAGGSLRLSCAASGSIFKFNAMGWYRQAPGKERELDASITWTGTSTHYADSVKGRFTISRDNAKNTVFLQMNSLKPEDTAVYYCATYLYLWYEKGYTYDYWGQGTQVTVSS	high polyreactivity
QVQLVESGGCLVQAGGSLRLSCASSGRTFRRYTMGWYRQAPGKETELVAAITSGGRTNYADSVKGRFTISRDNAKNTVYLQMNSLKPEDTAVYYCNAQNEIWRVTFSPYDRWGYDYWGQGTQVTVSS	low polyreactivity
QVQLEESGGGLVQAGGSLRLSCAASGFTIIRYAMGWYRQAPGKERELVATISRRGASTYYADSVKGRFTISRANAKNTVYLQMNSLKPEDTAVYYCAKRTYSRKFRGAYNYWGQGTQVTVSS	high polyreactivity
QVQLVESRGGLVQAGGSLRLSCAASGNTFRIYTMGWYRQAPGKDRELVATITRRGGYTYYADSVKGRFTISRDNAKNTVYLQMNSLKPEDTAVYYCNALPRPSYTFDYWGQGTQVTVSS	high polyreactivity
QVQLVESGGGIVEAGGSLRLSCAASGSTYYWNAMVWYIQAPGKERELVAAISRDGSTYYADSVNGRFTISRDNAKKTVYLHMNCLKPEVTAVYYCAKACVTNVVVVDSVFAYDYWGQGTIVTVSS	low polyreactivity
QVQLVESGGGLVQAGGSLRLSCAASGLTFAVYAMGWYRQAPGKVRELVAAITYSGSRTYYADSVKGRFTISRDNAKNTVYLQMNSLKPEVTAVYYCNALYRRDIKFYYWGQGTQVTVSS	high polyreactivity
QVQLVESGGGLVQAGGSLRLSCAASGFIFRYYAMGWSRQAPGKERELGAAITISGGSTYYADSVKGRFTISRDNAKNTVKLQMNSLKPEDTAFYYCAADSKFWYLFHGKRYDYWGQGTQGTVSS	high polyreactivity
QVQLVESGGGLVQAGGSLRLSCAASGFIFGYNAMGWYRQAPGKERELVAAISTRGGSTYYADSVKGRFTISRDNAKNTVYLQMNSLKPEDTAVYYCNKVTRVPFDSWGQGTQVTVSS	high polyreactivity
QVQLVESGGGLVQAGGSIRLSCAASGFIFYYNPMGWSRQEPGIERELVADITSGRSTYYADSVKGRFTISRDNAKISVYLQLNSLKPEDTAVIYCAVDYDQFGSDEELPPGSDYWGQGTQVTVSS	low polyreactivity
QVQLVESGGGLVQAGGSLRLSCAASGIIFKNYAMGWYRQAPGKERELVAAISWRGGRTYYADSVKGRFTISRDNAKNTVYLQMNSLKPEDTAVYYCAKELYVSYRGGPWVDYWGQGTQVTVSS	high polyreactivity
QVQLVESGGGLVQAGGSLRLSFAASGSIFSTYAMVWYRQAPGKERELVAAISTRGGRTYYADSLKGRFTLSRDNAKNTVYLQMNSLKPEDTAVYYCAADRYKTIGQWYYYWGQGTQVTVSS	high polyreactivity
QVQLVESGGGLVQAGGSLRLSCAGSGSTFFEYAMGWYRQAPGKDREFVAGISWSGGITYYADSVKGRFTISRDNAKNTVYLQMNSLKPEDTAVYYCASAGGDWYGVDYWGQGTQVTVSS	low polyreactivity
QVQLVESGGGLVQAGGSIRLSCAASGIIFDTYAMGWYRQAPGKERELVAVISASGGSTYYADSVKGRFTISRDNAKNTVYLQMNSLKPEDTAVYYCAARHSLYGYWGQGTQVTVSS	high polyreactivity
QVQLVESGGGLVQAGGSLRLSCAASGSIFRIYRMGWYRQAPGKERELVAAISYSGGNTYYADSVKGRFTISRDNAKNTVYLQMNSLKPEDTAVYYCAAVPYRKHSYPFRLNYWGQGTQVTVSS	high polyreactivity
QVQLVESGGGLVQAGGSLRLSCAASGSTFRVNAMGWYRQAPGKEREFVAGISFGGGSTYYADSVKGRFTISRDNAKNTVYLQMNSLKPEDTAVYYCNARGKGSGAVRYNYWGQGTQVTVSS	high polyreactivity
QVQLVESGGGLVQAGGSLRLSCAASGNIFSLNGMGWYRQAPGKEREFVAAITWSVGSTSSADSVKGRFTISRDNAKNTVYLQMNSLKPEDTAVYYGAATVSDLYKHEYYYWGQGTQVTVSS	low polyreactivity
QDQLVESGGGLVQAGGSLRLSCAASGFTFQDYAMGWYRPAPGKERELVAAISTSDGNTYYADSVKGRFTISRDNAKNTVYLQMNSLKPEDTAVYYCAAQRNYGWVKFYYWGQGTQVTVSS	high polyreactivity
QVQLVESGGGLVQAGGSLRLSCAASGSTFPRYAMGWYRQAPGKERELVAAISSGGSTYYADSVKGRFTISRDNAKNTVYLQMNSLKPEDTAVYYCNRRPGARYNYWGQGTQVTVSS	high polyreactivity
QVQLVESGGGLVQAGGSLRLSCAASGRIFGYYTMGWYRQAPGKERELVATITGGGGSTYYADSVKGRFTISRDNAKNTVYLQMNSLKPEDTAVYYCAKRNWKYVSHRHSYYETYDYWGQGTQVTVSS	high polyreactivity
QVQLVESGGGLVQAGGSLRLSCAASGRIFPAYVRVWYRQAPGKERELVAAISDRGGSTYYADSVKGRFTISRDTAKHTVSLQMHRLKPEDTAVYYCAKGGEVSQGYTDDYDYWGQGTQVSVSS	low polyreactivity
QVQLVESGGGLVQAGGSLRLSCAASGRTFGGNAMGWYRQAPGKERELVAVIRSTGGSTYYADSVKGRFTISRDTAKNTVYVQMNSLKPEDTAVYYCAKGRGRNFGYWGQGTQVTVSS	high polyreactivity
